Patent publication US20110135634A1, “METHODS OF INHIBITING INFECTION BY DIVERSE SUBTYPES OF DRUG-RESISTANT HIV-1” (priority 2007, published 2011)
“And” between values parts separate entries of the source, which are not always exact repeats. Equal values may be shown once.

Experiments:
HIV-1 = details: dose-dependent, treatment period of 10-14 days; cited from earlier work
[1] = target: HIV-1 JR-FL gp120 (HIV-1 strain JR-FL); assay: cell-based or functional assay
[2] = target: HIV-1 SF162 gp120 (HIV-1 strain SF162) (UniProt P19550); assay: cell-based or functional assay
[3] = test system: reporter viruses pseudotyped with HIV-1JR-FL envelope (U87-CD4-CCR5 cells); assay: microbe, parasite or virus in culture; type: cell-based; details: HIV-1 envelope JRFL; 1st inhibitor alone; read-out: IC90
[4] = test system: reporter viruses pseudotyped with HIV-1SF162 envelope (U87-CD4-CCR5 cells); assay: HIV-1 pseudovirus assay, SF162 envelope; type: cell-based; details: HIV-1 envelope SF162, 1st inhibitor alone
From the text: A self-inactivating (SIN) vector was derived from the pNL4-3ΔEnv-luciferase vector (Dragic et al. 1996) by deleting 507 basepairs in the U3 region of the 3′ long terminal repeat (LTR) so as to remove the TATA box and transcription factor binding sites. The human cytomegalovirus promoter was inserted upstream of the luciferase (luc) gene to enable expression of luciferase following integration.
Reporter viruses pseudotyped with HIV-1JR-FL or HIV-1SF162 envelopes were generated by cotransfection of 293T cells with the SIN vector and the appropriate pcDNA env-expressing vector as previously described (Dragic et al. 1996). […] Cultures were incubated for 72 h at 37° C. in DMEM containing 10% fetal bovine serum, […] puromycin, 0.3 mg/mL geneticin, antibiotics, and 0.5% DMSO. Luciferase activity (relative light units or RLU) was measured using. BrightGlo reagent (Promega, Madison, Wis.) according to the manufacturer's instructions.
Experimental design and data analysis were based on the combination index (CI) method (Chou et al. 1991; Chou et al. 1984). […] The mutually exclusive CI formula was used for combinations of CCR5 inhibitors, while the mutually non-exclusive formula was utilized for combinations of inhibitors to distinct targets (Chou et al. 1991). Each test was conducted 4-12 times. Synergy, additivity and antagonism are indicated by CI<1, CI=1 and CI>1, respectively.

[5] = target: T1, CCR5 on CEM.NKR-CCR5 cells (Homo sapiens, UniProt P51681); assay: Competition binding: inhibition of PRO 140-PE binding; details: CEM.NKR-CCR5 cells, flow cytometry
T1 construct: host or cells: CEM.NKR-CCR5 (transduced human T cell leukemia line)
T1 sequence (P51681 whole entry): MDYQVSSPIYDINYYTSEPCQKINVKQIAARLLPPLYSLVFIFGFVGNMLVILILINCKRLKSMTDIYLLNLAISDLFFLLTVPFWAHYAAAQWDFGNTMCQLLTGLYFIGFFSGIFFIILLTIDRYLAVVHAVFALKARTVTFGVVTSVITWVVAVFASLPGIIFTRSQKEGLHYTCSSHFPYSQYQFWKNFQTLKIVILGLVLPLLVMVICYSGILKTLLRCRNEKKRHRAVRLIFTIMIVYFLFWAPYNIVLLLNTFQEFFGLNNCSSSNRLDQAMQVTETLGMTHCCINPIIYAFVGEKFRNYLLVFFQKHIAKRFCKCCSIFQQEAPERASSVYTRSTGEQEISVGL
Experimental: Azide was added to block CCR5 internalization during the assay.

[6] = test system: primary R5 HIV-1 isolates JR-FL and Case C 1/85 (CC1/85); assay: In vitro resistance selection and susceptibility testing on PBMC; type: cell-based; details: p24 ELISA
Experimental: For susceptibility testing, viruses were cultured in vitro on stimulated PBMC. In the presence and absence of serially diluted drug, and the extent of viral replication was determined by p24 ELISA.

[7] = target: CCR5 (CC-chemokine receptor 5) (human) (UniProt P51681); assay: cell-based or functional assay
[8] = target: CCR5 (CC-chemokine receptor 5) (human) (UniProt P51681); assay: flow cytometry competition; unlabeled PRO 140 pre-incubated with CEM.NKR-CCR5 cells, then 5 nM PRO 140-PE as competitor; MFI read-out
[9] = target: CCR5 (CC-chemokine receptor 5) (human) (UniProt P51681); assay: flow cytometry competition; unlabeled PRO 140 pre-incubated with CEM.NKR-CCR5 cells, then 5 nM PRO 140-PE as competitor; percent cells gated read-out
[10] = target: CCR5 (CC-chemokine receptor 5) (human) (UniProt P51681); assay: displacement of labelled ligand; PRO 140 pre-incubated with CEM.NKR-CCR5 cells, then 2 nM 3H-UK-427,857 (small molecule) as competitor; scintillation counting

## CCO/N=C(\c1ccc(Br)cc1)C1CCN(C2(C)CCN(C(=O)c3c(C)cc[n+]([O-])c3C)CC2)CC1 [SCH-C]
HIV-1
  mean reductions in HIV-1 RNA levels: ~1 log10

## PRO 542 (CD4-IgG2) (from UniProt P01730 26-204; P01730 26-203) (Fc fusion)
[1]
  IC50, HIV-1 reporter virus pseudotyped with JRFL envelope, U87-CD4-CCR5 cells: 0.19 nM
  IC90, HIV-1 reporter virus pseudotyped with JRFL envelope, U87-CD4-CCR5 cells: 2.9 nM
[2]
  IC50, HIV-1 reporter virus pseudotyped with SF162 envelope, U87-CD4-CCR5 cells: 0.36 nM
  IC90, HIV-1 reporter virus pseudotyped with SF162 envelope, U87-CD4-CCR5 cells: 7.1 nM

## CCCCN1C(=O)[C@@H]([C@H](O)C2CCCCC2)NC(=O)C12CCN(Cc1ccc(Oc3ccc(C(=O)O)cc3)cc1)CC2 [GW873140]
HIV-1
  mean reductions in HIV-1 RNA levels: ~1 log10

## COC[C@@H](c1ccc(C(F)(F)F)cc1)N1CCN(C2(C)CCN(C(=O)c3c(C)ncnc3C)CC2)C[C@@H]1C [SCH-D, 1-[(4,6-dimethyl-5-pyrimidinyl)carbonyl]-4-[4-[2-methoxy-1(R)-4-(trifluoromethyl)phenyl]ethyl-3(S)-methyl-1-piperazinyl]-4-methylpiperidine]
[3]
  IC90: 44 nM
[4]; read-out: IC50
  IC50: 0.34 nM
[4]; read-out: IC90
  IC90: 14 nM
[5]
  inhibition of PRO 140-PE binding (in words): modest levels of inhibition
[6]
  inhibition of PRO 140 escape mutants: efficiently inhibited
HIV-1
  mean reductions in HIV-1 RNA levels: ~1 log10

B1: PRO 140, humanized IgG4,κ anti-CCR5 monoclonal antibody (antibody, INN chains, looked up, V domains shown)
VH: EVQLVESGGGLVKPGGSLRLSCAASGYTFSNYWIGWVRQAPGKGLEWIGDIYPGGNYIRNNEKFKDKTTLSADTSKNTAYLQMNSLKTEDTAVYYCGSSFGSNYVFAWFTYWGQGTLVTVSS
VL: DIVMTQSPLSLPVTPGEPASISCRSSQRLLSSYGHTYLHWYLQKPGQSPQLLIYEVSNRFSGVPDRFSGSGSGTDFTLKISRVEAEDVGVYYCSQSTHVPLTFGQGTKVEIK
[7]
  IC50, HIV-1 reporter virus pseudotyped with JRFL envelope, U87-CD4-CCR5 cells: 2.2 nM
  IC50, HIV-1 reporter virus pseudotyped with SF162 envelope, U87-CD4-CCR5 cells: 1.3 nM
  IC50, PhenoSense HIV Entry assay, U87-CD4/CCR5 cells, virus DUAL: 0.347 µg/mL
  IC50, PhenoSense HIV Entry assay, U87-CD4/CCR5 cells, virus JRCSF: 0.574 µg/mL
  IC50, PhenoSense HIV Entry assay, U87-CD4/CCR5 cells, virus Panel 1 (subtype A): 0.199 µg/mL
  IC50, PhenoSense HIV Entry assay, U87-CD4/CCR5 cells, virus Panel 2 (subtype A): 0.305 µg/mL
  IC50, PhenoSense HIV Entry assay, U87-CD4/CCR5 cells, virus Panel 3 (subtype A): 0.414 µg/mL
  IC50, PhenoSense HIV Entry assay, U87-CD4/CCR5 cells, virus Panel 4 (subtype A): 0.508 µg/mL
  IC50, PhenoSense HIV Entry assay, U87-CD4/CCR5 cells, virus Panel 5 (subtype C): 0.356 µg/mL
  IC50, PhenoSense HIV Entry assay, U87-CD4/CCR5 cells, virus Panel 6 (subtype C): 0.318 µg/mL
  IC50, PhenoSense HIV Entry assay, U87-CD4/CCR5 cells, virus Panel 7 (subtype C): 0.0955 µg/mL
  IC50, PhenoSense HIV Entry assay, U87-CD4/CCR5 cells, virus Panel 8 (subtype C): 0.527 µg/mL
  IC50, PhenoSense HIV Entry assay, U87-CD4/CCR5 cells, virus Panel 9 (subtype D): 0.679 µg/mL
  IC50, PhenoSense HIV Entry assay, U87-CD4/CCR5 cells, virus Panel 10 (subtype D): 0.59 µg/mL
  IC50, PhenoSense HIV Entry assay, U87-CD4/CCR5 cells, virus Panel 11 (subtype D): 0.365 µg/mL
  IC50, PhenoSense HIV Entry assay, U87-CD4/CCR5 cells, virus Panel 12 (subtype D): 0.238 µg/mL
  IC50, PhenoSense HIV Entry assay, U87-CD4/CCR5 cells, virus Panel 13 (subtype F): 0.788 µg/mL
  IC50, PhenoSense HIV Entry assay, U87-CD4/CCR5 cells, virus Panel 14 (subtype F): 0.657 µg/mL
  IC50, PhenoSense HIV Entry assay, U87-CD4/CCR5 cells, virus Panel 15 (subtype F): 0.332 µg/mL
  IC50, PhenoSense HIV Entry assay, U87-CD4/CCR5 cells, virus Panel 16 (subtype F): 0.342 µg/mL
  IC50, PhenoSense HIV Entry assay, U87-CD4/CCR5 cells, virus Panel 17 (subtype G): 0.26 µg/mL
  IC50, PhenoSense HIV Entry assay, U87-CD4/CCR5 cells, virus Panel 18 (subtype G): 1.43 µg/mL
  IC50, PhenoSense HIV Entry assay, U87-CD4/CCR5 cells, virus Panel 19 (subtype G): 0.384 µg/mL
  IC50, PhenoSense HIV Entry assay, U87-CD4/CCR5 cells, virus Panel 20 (subtype G): 0.432 µg/mL
  IC50, PhenoSense HIV Entry assay, U87-CD4/CCR5 cells, virus Panel 21 (subtype J): 0.525 µg/mL
  IC50, PhenoSense HIV Entry assay, U87-CD4/CCR5 cells, virus Panel 22 (subtype J): 0.436 µg/mL
  IC50, PhenoSense HIV Entry assay, U87-CD4/CCR5 cells, virus Panel 23 (subtype J): 0.269 µg/mL
  IC50, PhenoSense HIV Entry assay, U87-CD4/CCR5 cells, virus Panel 24 (subtype B): 0.547 µg/mL
  IC50, PhenoSense HIV Entry assay, U87-CD4/CCR5 cells, virus Panel 25 (subtype B): 0.519 µg/mL
  IC50, PhenoSense HIV Entry assay, U87-CD4/CCR5 cells, virus Panel 26 (subtype B): 0.442 µg/mL
  IC50, PhenoSense HIV Entry assay, U87-CD4/CCR5 cells, virus Panel 27 (subtype B): 0.575 µg/mL
  IC50, PhenoSense HIV Entry assay, U87-CD4/CCR5 cells, virus Panel 31 JRCSF-N43D: 0.67 µg/mL
  IC90, HIV-1 reporter virus pseudotyped with JRFL envelope, U87-CD4-CCR5 cells: 28 nM
  IC90, HIV-1 reporter virus pseudotyped with SF162 envelope, U87-CD4-CCR5 cells: 20 nM
  IC90, PhenoSense HIV Entry assay, U87-CD4/CCR5 cells, virus DUAL: 1.56 µg/mL
  IC90, PhenoSense HIV Entry assay, U87-CD4/CCR5 cells, virus JRCSF: 18.3 µg/mL
  IC90, PhenoSense HIV Entry assay, U87-CD4/CCR5 cells, virus Panel 1 (subtype A): 1.69 µg/mL
  IC90, PhenoSense HIV Entry assay, U87-CD4/CCR5 cells, virus Panel 2 (subtype A): 4.51 µg/mL
  IC90, PhenoSense HIV Entry assay, U87-CD4/CCR5 cells, virus Panel 3 (subtype A): 3.38 µg/mL
  IC90, PhenoSense HIV Entry assay, U87-CD4/CCR5 cells, virus Panel 4 (subtype A): 3.45 µg/mL
  IC90, PhenoSense HIV Entry assay, U87-CD4/CCR5 cells, virus Panel 5 (subtype C): 6.52 µg/mL
  IC90, PhenoSense HIV Entry assay, U87-CD4/CCR5 cells, virus Panel 6 (subtype C): 3.37 µg/mL
  IC90, PhenoSense HIV Entry assay, U87-CD4/CCR5 cells, virus Panel 7 (subtype C): 0.447 µg/mL
  IC90, PhenoSense HIV Entry assay, U87-CD4/CCR5 cells, virus Panel 8 (subtype C): 7.25 µg/mL
  IC90, PhenoSense HIV Entry assay, U87-CD4/CCR5 cells, virus Panel 9 (subtype D): 15.3 µg/mL
  IC90, PhenoSense HIV Entry assay, U87-CD4/CCR5 cells, virus Panel 10 (subtype D): 5.65 µg/mL
  IC90, PhenoSense HIV Entry assay, U87-CD4/CCR5 cells, virus Panel 11 (subtype D): 4.33 µg/mL
  IC90, PhenoSense HIV Entry assay, U87-CD4/CCR5 cells, virus Panel 12 (subtype D): 2.08 µg/mL
  IC90, PhenoSense HIV Entry assay, U87-CD4/CCR5 cells, virus Panel 13 (subtype F): 16.7 µg/mL
  IC90, PhenoSense HIV Entry assay, U87-CD4/CCR5 cells, virus Panel 14 (subtype F): 21.9 µg/mL
  IC90, PhenoSense HIV Entry assay, U87-CD4/CCR5 cells, virus Panel 15 (subtype F): 5.88 µg/mL
  IC90, PhenoSense HIV Entry assay, U87-CD4/CCR5 cells, virus Panel 16 (subtype F): 14 µg/mL
  IC90, PhenoSense HIV Entry assay, U87-CD4/CCR5 cells, virus Panel 17 (subtype G): 2.41 µg/mL
  IC90, PhenoSense HIV Entry assay, U87-CD4/CCR5 cells, virus Panel 18 (subtype G): 50.7 µg/mL
  IC90, PhenoSense HIV Entry assay, U87-CD4/CCR5 cells, virus Panel 19 (subtype G): 3.51 µg/mL
  IC90, PhenoSense HIV Entry assay, U87-CD4/CCR5 cells, virus Panel 20 (subtype G): 5.65 µg/mL
  IC90, PhenoSense HIV Entry assay, U87-CD4/CCR5 cells, virus Panel 21 (subtype J): 6.06 µg/mL
  IC90, PhenoSense HIV Entry assay, U87-CD4/CCR5 cells, virus Panel 22 (subtype J): 9.24 µg/mL
  IC90, PhenoSense HIV Entry assay, U87-CD4/CCR5 cells, virus Panel 23 (subtype J): 3.3 µg/mL
  IC90, PhenoSense HIV Entry assay, U87-CD4/CCR5 cells, virus Panel 24 (subtype B): 10.1 µg/mL
  IC90, PhenoSense HIV Entry assay, U87-CD4/CCR5 cells, virus Panel 25 (subtype B): 12.2 µg/mL
  IC90, PhenoSense HIV Entry assay, U87-CD4/CCR5 cells, virus Panel 26 (subtype B): 8.91 µg/mL
  IC90, PhenoSense HIV Entry assay, U87-CD4/CCR5 cells, virus Panel 27 (subtype B): 6.5 µg/mL
  IC90, PhenoSense HIV Entry assay, U87-CD4/CCR5 cells, virus Panel 31 JRCSF-N43D: 16.1 µg/mL
  IC90, neutralization of primary R5 HIV-1 isolates, whole virus replication assay: 3 µg/mL and 4 µg/mL
[8]
  EC50: 2.5 nM
[9]
  EC90: 17 nM
[10]
  EC50: 14 nM
